Laboratory results as given in patent US20050106160A1.
Where “and” joins values, the source holds several entries; their conditions need not be identical. Equal entries are not always repeated. Where two headings read alike, the source gives them in different places.

How the values were obtained:
[1] = target: cell surface associated CCR5 (CF2Th-CCR5 cells) (UniProt P51681)
[2] = target: cell surface associated CCR5 (CF2Th-CCR5 cells) (UniProt P51681); experiment: flow cytometry on CF2Th-CCR5 cells, anti-CCR5 mAb 5C7, no ligand, background subtracted
[3] = target: cell surface associated CCR5 (CF2Th-CCR5 cells) (UniProt P51681); experiment: flow cytometry on CF2Th-CCR5 cells, anti-CCR5 mAb 5C7, cells preincubated with sCD4 (1 µg/ml)
[4] = target: cell surface associated CCR5 (CF2Th-CCR5 cells) (UniProt P51681); experiment: flow cytometry on CF2Th-CCR5 cells, anti-CCR5 mAb 5C7, cells preincubated with gp140 + sCD4

Chain of UniProt P51681 (P51681 whole entry): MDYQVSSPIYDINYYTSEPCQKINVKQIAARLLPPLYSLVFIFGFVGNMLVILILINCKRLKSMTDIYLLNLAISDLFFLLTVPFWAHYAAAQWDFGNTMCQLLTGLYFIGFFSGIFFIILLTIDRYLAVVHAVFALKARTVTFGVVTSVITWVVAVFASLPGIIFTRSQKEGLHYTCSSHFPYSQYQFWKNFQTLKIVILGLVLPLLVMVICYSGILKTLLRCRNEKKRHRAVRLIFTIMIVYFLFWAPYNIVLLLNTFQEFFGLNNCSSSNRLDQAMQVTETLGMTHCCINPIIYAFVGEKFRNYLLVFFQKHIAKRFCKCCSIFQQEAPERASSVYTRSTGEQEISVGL

Substance | geometric mean of fluorescence intensity (arbitrary units) [1] | geometric mean of fluorescence intensity (arbitrary units) [2] | geometric mean of fluorescence intensity (arbitrary units) [3] | geometric mean of fluorescence intensity (arbitrary units) [4]
two-domain soluble CD4 (sCD4) (from UniProt P01730 26-208) (receptor) | 20 | – | – | –
anti-CCR5 mAb 5C7 (antibody) | 1200 and 1100 | 1100 | 1300 | 370
